# Measured values from the RNAGym collection of RNA variant scans (doi:10.7554/elife.80360).
# B1: Hairpin Ribozyme (parent)
# chain: GUCCUCUUUCACGUGCGCGUGAAAGAGAGAAGUGAACCAGAGAAACACACGUUGUGGUAUAUUACCUGGUA
# Variants of: B1
# Test: self-cleavage, relative activity (ratio to wild type); higher = more cleavage; co-transcriptional
row,Variant,self-cleavage
1,GUCCUCUUUCACGUGCGCGUGAAAGAGGGAAGUGAACCAGAGAAACACAAGUUGUGGUAUAUUACCUGGUA,0.415
2,GUCCUCUUUCACGUGCGCGUGAAAGAGGGAAGUGAACCAGAGAAACACACGUUGUGGUAUAUUAUCUGGUA,0.498
3,GUCCUCUUUCACGUGCGCGUGAAAGAGGGAAGUGAACCAGAGAAACACACGUUGUGGUAUAUUACAUGGUA,0.231
4,GUCCUCUUUCACGUGCGCGUGAAAGAGGAAAGUGAACCAGAGAAACACACGUUGUGGUAUAUUACCUGGUA,0.13
5,GUCCUCUUUCACGUGCGCGUGAAAGAGGGAAGUGAACCACAGAAACACACGUUGUGGUAUAUUACCUGGUA,0.166
6,GUCCUCUUUCACGUGCGCGUGAAAGAGGGAAGUGAACCAGACAAACACACGUUGUGGUAUAUUACCUGGUA,0.47
7,GUCCUCUUUCACGUGCGCGUGAAAGAGGGAAGUGAACCAGAGAAACACACAUUGUGGUAUAUUACCUGGUA,1.25
8,GUCCUCUUUCACGUGCGCGUGAAAGAGGGAAGUGAACCAGAGAAACACACGUUCUGGUAUAUUACCUGGUA,0.432
9,GUCCUCUUUCACGUGCGCGUGAAAGAGGGAAGUGAACCAGAGAAACACACGUUGUAGUAUAUUACCUGGUA,0.296
10,GUCCUCUUUCACGUGCGCGUGAAAGAGGGAAGUGAACCAGAGAAACACACGUUGUCGUAUAUUACCUGGUA,0.0641
11,GUCCUCUUUCACGUGCGCGUGAAAGAGGGAAGUGAACCAGAGAAACACACGUUGUUGUAUAUUACCUGGUA,0.165
12,GUCCUCUUUCACGUGCGCGUGAAAGAGGGAAGUGAACCAGAGAAACACACGUUGUGCUAUAUUACCUGGUA,0.263
13,GUCCUCUUUCACGUGCGCGUGAAAGAGGGAAGUGAACCAGAGAAACACACGUUGUGGUAUAUUACCUUGUA,0.372
14,GUCCUCUUUCACGUGCGCGUGAAAGAGGGAAGUGAACCAGAGAAACACACGUUGUGGUAUAUUACCUGUUA,0.331
15,GUCCUCUUUCACGUGCGCGUGAAAGAGGGAAGGGAACCAGAGAAACACACGUUGUGGUAUAUUACCUGGUA,0.211
16,GUCCUCUUUCACGUGCGCGUGAAAGAGGGAAGUGAACCAGAGAAACACACGAUGUGGUAUAUUACCUGGUA,0.814
17,GUCCUCUUUCACGUGCGCGUGAAAGAGGGAAGUGAACCAGAGAAACACACGUUGGGGUAUAUUACCUGGUA,0.427
18,GUCCUCUUUCACGUGCGCGUGAAAGAGGGAAGUGAACCAGAGAAACACACGUUGUGGCAUAUUACCUGGUA,0.791
19,GUCCUCUUUCACGUGCGCGUGAAAGAGGGAAGUGAACCAGAGAAACACACGUUGUGGGAUAUUACCUGGUA,0.91

row,Variant,self-cleavage
1,GUCCUCUUUCACGUGCGCGUGAAAGAGGGAAGUGAACCAGAGAAACACACGUUGUGGUAUACUACCUGGUA,0.302
2,GUCCUCUUUCACGUGCGCGUGAAAGAGGGAAGUGAACCAGAGAAACACACGUUGUGGUAUAUUACCGGGUA,0.294
3,GUCCUCUUUCACGUGCGCGUGAAAGAGGGAAGUGAACCAGAGAAACACACGUUGUGGUAUAUUACCUGGGA,0.978
4,GUCCUCUUUCACGUGCGCGUGAAAGAGUGCAGUGAACCAGAGAAACACACGUUGUGGUAUAUUACCUGGUA,0.167
5,GUCCUCUUUCACGUGCGCGUGAAAGAGUGGAGUGAACCAGAGAAACACACGUUGUGGUAUAUUACCUGGUA,0.0577
6,GUCCUCUUUCACGUGCGCGUGAAAGAGUGACGUGAACCAGAGAAACACACGUUGUGGUAUAUUACCUGGUA,0.251
7,GUCCUCUUUCACGUGCGCGUGAAAGAGUGAAGUGAGCCAGAGAAACACACGUUGUGGUAUAUUACCUGGUA,0.656
8,GUCCUCUUUCACGUGCGCGUGAAAGAGUGAAGUGAACCAGAGCAACACACGUUGUGGUAUAUUACCUGGUA,0.133
9,GUCCUCUUUCACGUGCGCGUGAAAGAGUGAAGUGAACCAGAGUAACACACGUUGUGGUAUAUUACCUGGUA,0.132
10,GUCCUCUUUCACGUGCGCGUGAAAGAGUGAAGUGAACCAGAGACACACACGUUGUGGUAUAUUACCUGGUA,0.179
11,GUCCUCUUUCACGUGCGCGUGAAAGAGUGAAGUGAACCAGAGAGACACACGUUGUGGUAUAUUACCUGGUA,0.25
12,GUCCUCUUUCACGUGCGCGUGAAAGAGUGAAGUGAACCAGAGAACCACACGUUGUGGUAUAUUACCUGGUA,0.0951
13,GUCCUCUUUCACGUGCGCGUGAAAGAGUGAAGUGAACCAGAGAAUCACACGUUGUGGUAUAUUACCUGGUA,0.224
14,GUCCUCUUUCACGUGCGCGUGAAAGAGUGAAGUGAACCAGAGAAACGCACGUUGUGGUAUAUUACCUGGUA,0.0453
15,GUCCUCUUUCACGUGCGCGUGAAAGAGUGAAGUGAACCAGAGAAACUCACGUUGUGGUAUAUUACCUGGUA,0.125
16,GUCCUCUUUCACGUGCGCGUGAAAGAGUGAAGUGAACCAGAGAAACACGCGUUGUGGUAUAUUACCUGGUA,0.365
17,GUCCUCUUUCACGUGCGCGUGAAAGAGUGAAGUGAAACAGAGAAACACACGUUGUGGUAUAUUACCUGGUA,0.143
18,GUCCUCUUUCACGUGCGCGUGAAAGAGUGAAGUGAACAAGAGAAACACACGUUGUGGUAUAUUACCUGGUA,0.159
19,GUCCUCUUUCACGUGCGCGUGAAAGAGUGAAGUGAACGAGAGAAACACACGUUGUGGUAUAUUACCUGGUA,0.0619
